Source: paper PMC3978657, “Early Steps in Autophagy Depend on Direct Phosphorylation of Atg9 by the Atg1 Kinase” (Molecular Cell, 2014)
Changes are numbered by the printed parent chain. Each block holds one binder with its values, some of them ahead of it.

Molecular target: T1, soluble Atg1 (Atg1 complex purified from yeast, released from the beads by TEV protease cleavage) (S. cerevisiae, UniProt P53104 1-897)
T1 construct: Atg1 serine-threonine kinase, S. cerevisiae; only Atg1 was detected (anti-Atg1 blot) in the pull-down; also called soluble Atg1 kinase; soluble Atg1 complex
T1 sequence (looked up): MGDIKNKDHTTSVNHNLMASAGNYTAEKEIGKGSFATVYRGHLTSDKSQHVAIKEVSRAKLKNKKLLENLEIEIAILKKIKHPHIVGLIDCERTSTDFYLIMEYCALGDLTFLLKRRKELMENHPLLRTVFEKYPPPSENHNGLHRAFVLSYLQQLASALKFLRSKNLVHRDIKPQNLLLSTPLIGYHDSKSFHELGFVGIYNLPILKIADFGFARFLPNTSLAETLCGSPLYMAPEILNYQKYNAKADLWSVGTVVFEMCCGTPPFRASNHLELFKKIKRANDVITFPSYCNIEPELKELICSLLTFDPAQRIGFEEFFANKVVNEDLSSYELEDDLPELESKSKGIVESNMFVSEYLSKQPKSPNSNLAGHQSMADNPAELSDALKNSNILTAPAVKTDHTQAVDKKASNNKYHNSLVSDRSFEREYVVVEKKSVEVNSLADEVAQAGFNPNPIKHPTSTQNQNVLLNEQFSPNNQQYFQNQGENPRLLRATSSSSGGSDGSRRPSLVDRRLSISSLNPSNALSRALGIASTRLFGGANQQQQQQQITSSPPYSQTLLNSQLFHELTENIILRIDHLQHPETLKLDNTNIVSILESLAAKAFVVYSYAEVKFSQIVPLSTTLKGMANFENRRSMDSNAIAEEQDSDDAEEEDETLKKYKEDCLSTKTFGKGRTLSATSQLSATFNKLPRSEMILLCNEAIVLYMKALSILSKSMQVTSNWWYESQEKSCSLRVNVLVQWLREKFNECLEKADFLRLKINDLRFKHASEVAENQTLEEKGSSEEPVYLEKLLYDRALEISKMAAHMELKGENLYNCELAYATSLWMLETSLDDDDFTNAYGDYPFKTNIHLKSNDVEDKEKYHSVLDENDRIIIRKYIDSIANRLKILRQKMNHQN
Assay: pull-down; GST fusion proteins from E. coli immobilized on beads, incubated with soluble Atg1; bound protein by anti-Atg1 western blotting
Details: both partners purified

binding result: binds
B1: GST-Atg9^757–997 wild-type (domain or fragment, S. cerevisiae, UniProt Q12142 757-997, looked up)
chain: RENSEYVDGLGYVCKYAMFNMKNIDGEDTHSMDEDSLTKKIAVNGSHTLNSKRRSKFTAEDHSDKDLANNKMLQSYVYFMDDYSNSENLTGKYQLPAKKGYPNNEGDSFLNNKYSWRKQFQPGQKPELFRIGKHALGPGHNISPAIYSTRNPGKNWDNNNNGDDIKNGTNNATAKNDDNNGNNDHEYVLTESFLDSGAFPNHDVIDHNKMLNSNYNGNGILNKGGVLGLVKEYYKKSDVGR
notes: Atg9, S. cerevisiae, C-terminal fragment, amino acids 757-997; also called C-terminal fragment of Atg9 (amino acids 757–997); recombinant Atg9 C-terminal fragment; source: E. coli, immobilized on beads

binding result: binds
B2: GST-Atg9^757–997 4A mutant (domain or fragment, S. cerevisiae, UniProt Q12142 757-997, looked up)
chain: B1 chain with S46A, S75A, S192A, S213A
notes: Atg9, S. cerevisiae, C-terminal fragment, amino acids 757-997, 4A mutant; source: E. coli, immobilized on beads
